{"source": "patent US20260207767A1", "about": "(ANAVEON, published 2026)", "key": {"recombinant human IL-2 [1]": {"target": "T1, recombinant human IL-2 (human, UniProt P60568 21-153)", "T1 construct": "bought (BLI: Acro Biosystems IL2-H4113); also called rhIL-2; hIL-2", "T1 sequence (P60568 21-153 limits assumed)": "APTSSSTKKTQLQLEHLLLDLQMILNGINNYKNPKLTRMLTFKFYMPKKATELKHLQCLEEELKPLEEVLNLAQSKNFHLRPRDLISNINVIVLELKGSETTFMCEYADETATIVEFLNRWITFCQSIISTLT", "assay": "BLI, antibody immobilized; BLI: antibody immobilized on amine reactive sensors, rhIL-2 in solution as a dilution series", "method": "(§1) Binding to IL-2 was first tested by ELISA using a serial dilution of antibodies on coated IL-2. Recombinant human IL-2 was coated on Maxisorp ELISA plates (Invitrogen, 44-2404-21) at 5 μg/ml, 4° C. overnight. […] The antibodies were detected with anti-human IgG-Peroxidase (Sigma, A0170). After addition and blockade of the chemiluminescent substrate, absorption was read (A₄₅₀-A₅₇₀ at plate reader, Spectramax 03). EC₅₀ values were obtained by plotting Absorbance vs. log(Concentration) and sigmoidal 4-PL fitting using GraphPad Prism (Table 1). […] Antibodies were immobilized on amine reactive (2nd Generation) sensors (ForteBio, 18-5092). Association (600s) and dissociation (900s) of a dilution series of recombinant IL-2 (Acro Biosystems, IL2-H4113) were measured on the antibody-coated biosensors on an Octet-System (Octet RED, ForteBio). KD values were obtained by fitting the kinetics data with the ForteBio Data Analysis Software (8.2)."}, "[2]": {"target": "T2, IL-2R CD122-CD132 on Jurkat-PD1+CD122+ cells (UniProt P14784 27-551; P31785 23-369)", "T2 sequence (looked up) 1": "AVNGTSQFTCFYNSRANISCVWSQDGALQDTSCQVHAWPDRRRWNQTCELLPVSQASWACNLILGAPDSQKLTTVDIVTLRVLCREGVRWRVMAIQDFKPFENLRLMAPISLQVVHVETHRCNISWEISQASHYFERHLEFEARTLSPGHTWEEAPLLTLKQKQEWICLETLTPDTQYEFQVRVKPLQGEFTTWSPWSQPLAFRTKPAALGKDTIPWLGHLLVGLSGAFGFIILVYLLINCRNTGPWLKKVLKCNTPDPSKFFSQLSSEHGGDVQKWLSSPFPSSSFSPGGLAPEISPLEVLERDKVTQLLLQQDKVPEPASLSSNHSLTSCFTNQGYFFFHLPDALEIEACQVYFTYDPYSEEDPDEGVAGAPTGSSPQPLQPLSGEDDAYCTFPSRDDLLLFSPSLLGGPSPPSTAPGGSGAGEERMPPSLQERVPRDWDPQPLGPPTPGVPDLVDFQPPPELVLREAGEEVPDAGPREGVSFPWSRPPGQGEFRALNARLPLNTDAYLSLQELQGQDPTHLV", "T2 sequence (looked up) 2": "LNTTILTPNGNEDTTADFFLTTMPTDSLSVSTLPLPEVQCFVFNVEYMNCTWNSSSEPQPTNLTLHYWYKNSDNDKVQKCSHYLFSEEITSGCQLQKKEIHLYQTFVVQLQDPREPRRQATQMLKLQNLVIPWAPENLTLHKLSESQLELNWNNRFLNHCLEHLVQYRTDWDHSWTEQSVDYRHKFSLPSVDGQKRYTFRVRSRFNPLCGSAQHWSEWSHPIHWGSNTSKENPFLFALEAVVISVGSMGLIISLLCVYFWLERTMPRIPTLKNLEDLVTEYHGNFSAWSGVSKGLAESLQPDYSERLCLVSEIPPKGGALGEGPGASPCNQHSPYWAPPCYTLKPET", "assay": "cell-based or functional assay"}, "[3]": {"target": "T3, hPD-1 (ECD-His, produced in house) (human, UniProt Q15116 25-170)", "T3 construct": "extracellular domain; also called coated hPD-1", "T3 sequence (Q15116 25-170)": "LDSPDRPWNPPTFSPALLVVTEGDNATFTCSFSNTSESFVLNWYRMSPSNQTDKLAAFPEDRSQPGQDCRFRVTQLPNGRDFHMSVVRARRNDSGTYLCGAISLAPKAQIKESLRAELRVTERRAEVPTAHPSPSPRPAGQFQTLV", "assay": "binding ELISA", "method": "60 nM of hPD-1 (ECD-His, produced in house) was coated on a Maxisorp plate (Nunc) overnight at 4° C. and blocked with 5% BSA in PBS. […] Absorbance signal after adding TMB was read with a plate reader (Spectramax ID3) at 450 nm. EC50 values were determined by blotting absorbance against concentration (Graphpad Prism, sigmoidal curve fit, 4 PL, X-axis is log)."}, "recombinant human IL-2 [4]": {"target": "T1, recombinant human IL-2", "assay": "BLI, antibody immobilized", "method": "as §1"}, "recombinant human IL-2 [5]": {"target": "T1, recombinant human IL-2", "assay": "ELISA, coated IL-2", "method": "as §1"}, "[6]": {"target": "T4, CD122/CD132 complex (His-tagged, Acro Biosystem ILG-H5283) (UniProt P14784 27-239; P31785 23-254, limits assumed)", "T4 construct": "bought; also called dimeric IL-2 receptor", "T4 sequence (looked up) 1": "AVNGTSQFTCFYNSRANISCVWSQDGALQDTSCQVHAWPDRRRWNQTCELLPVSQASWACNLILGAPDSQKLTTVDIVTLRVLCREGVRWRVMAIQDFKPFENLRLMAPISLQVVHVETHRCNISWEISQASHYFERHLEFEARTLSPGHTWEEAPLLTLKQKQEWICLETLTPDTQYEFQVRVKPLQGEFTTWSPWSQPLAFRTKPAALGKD", "T4 sequence (looked up) 2": "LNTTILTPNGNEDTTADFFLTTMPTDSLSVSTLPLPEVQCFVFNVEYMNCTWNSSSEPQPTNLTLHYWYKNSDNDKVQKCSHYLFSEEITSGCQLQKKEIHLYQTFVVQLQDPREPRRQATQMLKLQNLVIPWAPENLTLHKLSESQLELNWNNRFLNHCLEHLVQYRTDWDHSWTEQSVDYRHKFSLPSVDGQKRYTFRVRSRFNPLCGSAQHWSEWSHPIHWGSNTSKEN", "assay": "SPR, CD122/CD132 captured on NTA chip", "text": "Binding to the CD122/CD132 complex (His-tagged, Acro Biosystem, Cat #ILG-H5283) of one representative anti-IL-2 antibody/IL-2 fusion (QTY065) was additionally assessed by SPR (BIAcore 3000, v4.1.2; GE Healthcare) and compared to Proleukin. CD122/CD132 was captured on an NTA sensor chip (GE Healthcare). Proleukin or QTY065 Fab were used as analytes."}}}
{"binder": "Antibody B (antibody, human IgG1, kappa, V domains shown) VH: QVQLVESGGGVVQPGRSLRLSCAASGYTFSSYLIEWVRQAPGKGLEWVAVINPGSGGTNYADSVKGRFTISADKSKNTAYLQMNSLRAEDTAVYYCARWRGDGYYAYFDVWGQGTTVTVSS VL: EIVLTQSPATLSVSPGERATLSCRASQSVSYDGDSYMNWYQQKPGQAPRLLIYAASNLASGIPARFSGSGSGTEFTLTISSLQSEDAAVYYCQQSNEDPYTFGGGTKVEIKR", "values": [{"measurement": "Kd", "setting": "recombinant human IL-2 [1]", "value": 270, "unit": "nM"}]}
{"binder": "PXU588 (bispecific antibody, human IgG1, kappa, L234A L235A, also called IgG CrossMab 21A08A p2 x QTY065) heavy 1: EVQLLESGGGLVQPGGSLRLSCAASGFTFSINAMTWVRQAPGKGLEWVSTISGSGFSTYYADSLKGRFTISRDNSKNTLYLQMNSLRAEDTAVYYCAKEVYGDYWGQGTLVTVSSASVAAPSVFIFPPSDEQLKSGTASVVCLLNNFYPREAKVQWKVDNALQSGNSQESVTEQDSKDSTYSLSSTLTLSKADYEKHKVYACEVTHQGLSSPVTKSFNRGECDKTHTCPPCPAPEAAGGPSVFLFPPKPKDTLMISRTPEVTCVVVDVSHEDPEVKFNWYVDGVEVHNAKTKPREEQYNSTYRVVSVLTVLHQDWLNGKEYKCKVSNKALAAPIEKTISKAKGQPREPQVYTLPPSREEMTKNQVSLTCLVKGFYPSDIAVEWESNGQPENNYKTTPPVLDSDGSFFLTSKLTVDKSRWQQGNVFSCSVMHEALHNHYTQKSLSLSPGK light 1: RSVLTQPPSASGTPGQRVSISCSGASSNIGSSSVFWYQQLPGTAPKLLIYSNNQRPSGVPDRFSGSKSGTSASLAISGLRSEDEADYYCAAWDDSLSIWVFGGGTKLTVLSSASTKGPSVFPLAPSSKSTSGGTAALGCLVKDYFPEPVTVSWNSGALTSGVHTFPAVLQSSGLYSLSSVVTVPSSSLGTQTYICNVNHKPSNTKVDKRVEPKSC heavy 2: EVQLVQSGAEVKKPGESLKISCKGSGYAFTNYLIEWVRQMPGKGLEWMGVINPGSGGTNYNEKFKGQVTISADKSISTAYLQWSSLKASDTAMYYCARWRGEGYYAYFDVWGQGTTVTVSSASTKGPSVFPLAPSSKSTSGGTAALGCLVKDYFPEPVTVSWNSGALTSGVHTFPAVLQSSGLYSLSSVVTVPSSSLGTQTYICNVNHKPSNTKVDKRVEPKSCDKTHTCPPCPAPEAAGGPSVFLFPPKPKDTLMISRTPEVTCVVVDVSHEDPEVKFNWYVDGVEVHNAKTKPREEQYNSTYRVVSVLTVLHQDWLNGKEYKCKVSNKALAAPIEKTISKAKGQPREPQVYTLPPSREEMTKNQVSLYCLVKGFYPSDIAVEWESNGQPENNYKTTPPVLDSDGSFFLYSKLTVDKSRWQQGNVFSCSVMHEALHNHYTQKSLSLSPGK light 2: not shown", "values": [{"measurement": "EC50 value for pSTAT5 induction, Jurkat-PD-1+CD122+ cells", "setting": "[2]", "value": 5.37, "unit": "nM"}, {"measurement": "binding result", "setting": "[3]", "value": "no binding"}]}
{"binder": "Antibody A (antibody, human IgG1, kappa, N297A, V domains shown, humanized from antibody NARA1) VH: EVQLVQSGAEVKKPGESLKISCKGSGYAFTNYLIEWVRQMPGKGLEWMGVINPGSGGTNYNEKFKGQVTISADKSISTAYLQWSSLKASDTAMYYCARWRGEGYYAYFDVWGQGTTVTVSS VL: AIRLTQSPSSFSASTGDRVTITCKASQSVDYQGDSYMNWYQQKPGKAPKLLIYAASNLESGVPSRFSGSGSGTDFTLTISSLQSEDFATYYCQQSNEDPYTFGGGTKVEIKR", "values": [{"measurement": "Kd", "setting": "recombinant human IL-2 [4]", "value": 2.1, "unit": "nM"}, {"measurement": "EC50", "setting": "recombinant human IL-2 [5]", "value": 0.37, "unit": "nM"}]}
{"binder": "QTY065 Fab (Fab, also called Fab fragment of QTY065; not shown: CH1) heavy: EVQLVQSGAEVKKPGESLKISCKGSGYAFTNYLIEWVRQMPGKGLEWMGVINPGSGGTNYNEKFKGQVTISADKSISTAYLQWSSLKASDTAMYYCARWRGEGYYAYFDVWGQGTTVTVSS light: not shown", "values": [{"measurement": "Kd", "setting": "[6]", "value": 0.32, "unit": "nM"}]}
